Consider two molecules from patent US20250154500A1 (SEOUL NATIONAL UNIVERSITY R AND DB FOUNDATION, published 2025).

This assay deals with T1, FLAG-tagged ZCCHC2 ΔN (201-1,178 a.a) (human, UniProt Q9C0B9 201-1178).
T1 construct: Transiently expressed in HeLa ZCCHC2 knockout cells; also called pCK-Flag-ZCCHC2 (201-1178); not shown: FLAG tag and any linker to it; The plasmid name pCK-Flag-ZCCHC2 puts the tag at the N-terminus
Briefly: anti-FLAG co-immunoprecipitation from HeLa ZCCHC2 KO cells, western blot. As to the method: Data are normalized against the value of the wild-type sample and represented as mean±SEM (n=3). * indicates p<0.05, with a two-sided Student's t-test performed. […] Full-length ZCCHC2 protein and its truncated mutants (ΔC, ΔN) were compared for their ability to interact with TENT4 proteins. TENT4A and GAPDH were detected on the same gel, whereas the other proteins were analyzed on separate gels with the same amounts of samples. Cross-reacting bands are indicated by asterisks.
For co-IP experiment, parental cells and TENT4 dKO cells on a 150 μl plate were lysed on ice for 20 minutes using Buffer A (100 mM KCl, 0.1 mM EDTA, 20 mM HEPES [pH 7.5], 0.4% NP-40, 10% glycerol) containing 1 mM DL-Dithiothreitol (DTT), 1× protease inhibitor, and RNase A (Thermo, EN0531), and then centrifuged. For immunoprecipitation, 12.5 μg of antibody (NMG, anti-TENT4A, and anti-TENT4B) conjugated to protein A and G sepharose beads (1:1 mixture, total 20 μl) was used with 1 mg of the lysates. After incubation at 4° C. for 2 hours, the beads were washed, boiled in 20 μl of 2×SDS buffer, and loaded onto a 4-12% (Novex) SDS-PAGE gel with the ladder (Thermo, 26616 and 26619). For domain co-IP experiment, full-length ZCCHC2, truncated construct of ZCCHC2, and negative construct having FLAG tag were transfected in ZCCHC2KO cells, and the cells were lysed within 2 days. […]

T1 sequence (Q9C0B9 201-1178 limits assumed, stated change not applied): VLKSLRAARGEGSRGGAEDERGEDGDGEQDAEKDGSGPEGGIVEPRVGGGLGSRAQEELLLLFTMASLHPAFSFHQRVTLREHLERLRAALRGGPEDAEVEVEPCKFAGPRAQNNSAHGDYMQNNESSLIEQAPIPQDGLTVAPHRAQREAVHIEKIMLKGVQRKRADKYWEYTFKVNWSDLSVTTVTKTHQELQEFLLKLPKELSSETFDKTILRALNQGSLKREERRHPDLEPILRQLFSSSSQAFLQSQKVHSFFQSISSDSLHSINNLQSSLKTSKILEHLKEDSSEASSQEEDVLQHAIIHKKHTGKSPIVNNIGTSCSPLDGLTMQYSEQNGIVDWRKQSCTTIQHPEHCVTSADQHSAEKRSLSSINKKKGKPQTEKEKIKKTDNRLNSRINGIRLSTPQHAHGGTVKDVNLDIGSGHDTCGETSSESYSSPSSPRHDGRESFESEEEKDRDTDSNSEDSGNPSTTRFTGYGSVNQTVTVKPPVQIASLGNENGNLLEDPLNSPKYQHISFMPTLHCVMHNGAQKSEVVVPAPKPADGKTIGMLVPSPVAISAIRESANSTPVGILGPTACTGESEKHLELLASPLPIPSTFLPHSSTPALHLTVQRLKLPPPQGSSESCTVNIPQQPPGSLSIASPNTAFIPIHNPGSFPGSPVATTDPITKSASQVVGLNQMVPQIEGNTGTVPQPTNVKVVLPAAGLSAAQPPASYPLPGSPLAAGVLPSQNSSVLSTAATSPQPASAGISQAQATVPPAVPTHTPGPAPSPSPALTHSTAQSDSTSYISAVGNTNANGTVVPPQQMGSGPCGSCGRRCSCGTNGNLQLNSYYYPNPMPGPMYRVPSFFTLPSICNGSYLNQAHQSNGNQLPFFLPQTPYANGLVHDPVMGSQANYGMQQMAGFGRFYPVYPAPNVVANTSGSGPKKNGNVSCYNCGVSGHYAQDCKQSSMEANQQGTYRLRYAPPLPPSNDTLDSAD

B1: TENT4B (enzyme, human, UniProt Q8NDF8 1-572, looked up)
chain: MYRSGERLLGSHALPAEQRDFLPLETTNNNNNHHQPGAWARRAGSSASSPPSASSSPHPSAAVPAADPADSASGSSNKRKRDNKASGGRAAGGGRADGGGVVYSGTPWKRRNYNQGVVGLHEEISDFYEYMSPRPEEEKMRMEVVNRIESVIKELWPSADVQIFGSFKTGLYLPTSDIDLVVFGKWENLPLWTLEEALRKHKVADEDSVKVLDKATVPIIKLTDSFTEVKVDISFNVQNGVRAADLIKDFTKKYPVLPYLVLVLKQFLLQRDLNEVFTGGIGSYSLFLMAVSFLQLHPREDACIPNTNYGVLLIEFFELYGRHFNYLKTGIRIKDGGSYVAKDEVQKNMLDGYRPSMLYIEDPLQPGNDVGRSSYGAMQVKQAFDYAYVVLSHAVSPIAKYYPNNETESILGRIIRVTDEVATYRDWISKQWGLKNRPEPSCNGPVSSSSATQSSSSDVDSDATPCKTPKQLLCRPSTGNRVGSQDVSLESSQAVGKMQSTQTTNTSNSTNKSQHGSARLFRSSSKGFQGTTQTSHGSLMTNKQHQGKSNNQYYHGKKRKHKRDAPLSDLCR
notes: Endogenous protein of HeLa (human) cells; also called PAPD5; TRF4-2
On to B1, for which the binding result is listed as “no binding”.

B2: TENT4A (enzyme, human, UniProt Q5XG87 1-792, looked up)
chain: MDPRVAWIQPEQKGPANALWMQIWETSQGVGRGGSGFASYFCLNSPALDTAAAAGAAGRGSGGLGPALPAASPPPPGPTAPAALPPALLTALGPAAEGARRLHKSPSLSSSSSSSSSNAESGTESPGCSSSSSSSASLGRPGGGRGGAFFNFADGAPSAPGTANGHPGPRGPAPAGSPSQHQFHPGRRKRENKASTYGLNYLLSGSRAAALSGGGGPGAQAPRPGTPWKSRAYSPGIQGLHEEIIDFYNFMSPCPEEAAMRREVVKRIETVVKDLWPTADVQIFGSFSTGLYLPTSDIDLVVFGKWERPPLQLLEQALRKHNVAEPCSIKVLDKATVPIIKLTDQETEVKVDISFNMETGVRAAEFIKNYMKKYSLLPYLILVLKQFLLQRDLNEVFTGGISSYSLILMAISFLQLHPRIDARRADENLGMLLVEFFELYGRNFNYLKTGIRIKEGGAYIAKEEIMKAMTSGYRPSMLCIEDPLLPGNDVGRSSYGAMQVKQVFDYAYIVLSHAVSPLARSYPNRDAESTLGRIIKVTQEVIDYRRWIKEKWGSKAHPSPGMDSRIKIKERIATCNGEQTQNREPESPYGQRLTLSLSSPQLLSSGSSASSVSSLSGSDVDSDTPPCTTPSVYQFSLQAPAPLMAGLPTALPMPSGKPQPTTSRTLIMTTNNQTRFTIPPPTLGVAPVPCRQAGVEGTASLKAVHHMSSPAIPSASPNPLSSPHLYHKQHNGMKLSMKGSHGHTQGGGYSSVGSGGVRPPVGNRGHHQYNRTGWRRKKHTHTRDSLPVSLSR
notes: Endogenous protein of HeLa (human) cells; also called PAPD7; TRF4-1
As to B2, the binding result is recorded as “no binding”.
